{"source": "patent US20250019450A1", "about": "(DIAGONAL THERAPEUTICS, published 2025)", "binders": {"B1": {"name": "VHH230B2 (VHH)", "VHH": "QVQLVESGGGLVQAGGSLRLSCAASGRTFSSYAMGWFRQAPGKEREFVSAISWSGLSTYYVESVQGRFTISRDNAKNTVYLQMNSLKPEDTAVYYCAASRIYTNYVARSYEYDDWGQGTQVTVSS"}, "B2": {"name": "VHH322B2 (VHH)", "VHH": "QLQLVESGGGLVQAGGSLRLSCAASGRTFGIHGMGWFRQAPGKEREFAAAIRWSDGTTIHADSVKGRLTISRDNAKNTVYLQMNSLKPEDTAVYYCAATSNPQFGRNWYTVAAGVEYGYWGQGTQVTVSS"}, "B3": {"name": "VHH85B2 (VHH)", "VHH": "QVQLVESGGGLVQAGGSLRVSCAASGRIPSLNTMAWYRQAPGKQREFVAFITNGGTTNYVDSVEGRFSISRDNTKNAVDLQMNSLKPEDTGVYYCNVQISQYPYNYWGQGTQVTVSS"}, "B4": {"name": "VHH94B2 (VHH)", "VHH": "EVQLVESGGGLVQPGGSLRLSCAASGFTFSSYAMSWVRQAPGKGLEWVSAINSGGDSTSYADSVEGRFTISRDNAKNTLYLQMNSLKPDDTAVYYCAKWSDCSEYGCYDQTTTEGTQVTVSS"}, "B5": {"name": "VHH185B2 (VHH)", "VHH": "QVQLVESGGGLVQAGGSLRLSCAASGRTFSRYRMGWFRQAPGKEREFVAAITKSGATTYDADSVKGRFTISRDNAKNTLYLQMNSLKPEDTAVYYCAASYHSNWWPKNADEYAYWGQGTQVTVSS"}, "B6": {"name": "VHH194B2 (VHH)", "VHH": "QLQLVESGGGLVQAGGSLRLSCAASGLTFSGYTVGWFRQAPGKEREFVAAINWSSAYTYSEFVKGRFTISRDNAKNTVYLQMSSLKPEDTAVYYCAARRSRTSWYASTAEAYDYWGQGTQVTVSS"}, "B7": {"name": "VHH294B2 (VHH)", "VHH": "B6 VHH with R98Q"}, "B8": {"name": "VHH361B2 (VHH)", "VHH": "QVQLVESGGGLVQTGASLRLSCAASGRTFGRYEMAWFRQAPGKEREFVAHISSSGLTTTYADSVKGRFTISRGNALNTVYLQMNSLKPEDTAVYYCAANVDGSAWSTLGAGMDYWGKGTLVTISS"}, "B9": {"name": "VHH222B2 (VHH)", "VHH": "QVQLVESGGGLVQAGGSLRLSCAASGRIFSAYRMGWFRQAPGKEREFVAGITWRGQTTYYAASVKGRFTISKDNAKKTVYLQMNSLKPEETAVYYCAVETNGLGRWDRPSEYDYWGQGTQVTVSS"}, "B10": {"name": "VHH356B2 (VHH)", "VHH": "QLQLVESGGGLVQPGGSLRLSCAASGSIFSINAMGWYRQAPGKQRELVAAITSGGSTAYADSVKGRFTISRDNAKNTVYLQMNSLKPEDTAVYYCNADRDPITSWYVRGDYWGQGTQVTVSS"}, "B11": {"name": "VHH68B2 (VHH)", "VHH": "EVQLVESGGGLVQAGGSLKLSCAASGGTFSSYAMGWFRQAPGKEREFVAAIMRSGDTTVYVDSVKGRFTVSRDNAKNTVYLQMNSLKPEDAAVYYCAAGRPVTRTYYSTYTYPHDYDYWGQGTQVTVSS"}, "B12": {"name": "VHH278B2 (VHH)", "VHH": "B11 VHH with E1Q, A50V, V59A, Y95F, S108H"}, "B13": {"name": "VHH289B2 (VHH)", "VHH": "B11 VHH with E1Q, D56G, D62N, T103S, Y106S, S108Y, T126S"}, "B14": {"name": "VHH307B2 (VHH)", "VHH": "QVQLVESGGGLVQAGGSLRLSCAASGRTFSRYIMGWFRQATGKEREFVAAISWSGLSTHYADSVQGRFTISRDNAENTVYLQMNSLKPEDTAVYYCAADRHWETRLLPREYDYWGQGTQVTVSS"}, "B15": {"name": "VHH13B2 (VHH)", "VHH": "QVQLVESGGGLVRPGGSLRLSCAASGFTFSSNGMHWFRQAPGKGLEWVSSIGSGGTSIYYADSVKGRFTISRDNAKNTLYLQMNSLKSDDTAVYYCSKEVTGATRGQGTQVTVSS"}, "B16": {"name": "VHH19B2 (VHH)", "VHH": "QVQLVESGGGLVQPGGSLRLSCAASGFTFSNYAMSWVRQAPGKGLEWVSAINSDGTSTSYADSVKGQFTISRDNAKNTLYLQMNSLKPEDTAVYYCTKWEGDTDSDYKFKDYWGQGTQVTVSS"}, "B17": {"name": "VHH190B2 (VHH)", "VHH": "QVQLQESGPGLVKPSQTLSLTCTVSGGSITTNYYYWSWIRQPPGKGLEWMGAIAYSGSTYYSPSLKSRTSISRDTSKNQFTLQLSSVTPEDTAVYYCASGINFYSNYPTLNEYDYWGQGTQVTVSS"}, "B18": {"name": "VHH93B2 (VHH)", "VHH": "QVQLVESGGGLVQPGGSLRLSCAASGFTFEPYDMSWFRQAPGKGPEWVSAIDKGGGAGATYYADSVKGRFTISRDNAKKTLYLQMKSLKPEDTAVYYCAITAGPYSDSTPRVAYRGEGTQVTVSS"}, "B19": {"name": "VHH219B2 (VHH)", "VHH": "QVQLEESGGGLVQAGGSLRLSCAASGRTFSSYVVGWFRQAPGKEREFVGRISWSGARTYYADSVEGRFTISRDNAKNTVYLQMNSLKPEDTAVYYCAADLKWEVLLSEHYEYWGQGTQVTVSS"}}, "note": "Positions count from the first letter of the chain named."}
{"molecular_target": "T1, human IL-12RB2 with C-terminal HA tag, transiently expressed on HEK-293T cells (human, UniProt Q99665 24-862)", "T1 construct": "whole, on cells; also called human IL-12Rβ2", "T1 sequence (looked up)": "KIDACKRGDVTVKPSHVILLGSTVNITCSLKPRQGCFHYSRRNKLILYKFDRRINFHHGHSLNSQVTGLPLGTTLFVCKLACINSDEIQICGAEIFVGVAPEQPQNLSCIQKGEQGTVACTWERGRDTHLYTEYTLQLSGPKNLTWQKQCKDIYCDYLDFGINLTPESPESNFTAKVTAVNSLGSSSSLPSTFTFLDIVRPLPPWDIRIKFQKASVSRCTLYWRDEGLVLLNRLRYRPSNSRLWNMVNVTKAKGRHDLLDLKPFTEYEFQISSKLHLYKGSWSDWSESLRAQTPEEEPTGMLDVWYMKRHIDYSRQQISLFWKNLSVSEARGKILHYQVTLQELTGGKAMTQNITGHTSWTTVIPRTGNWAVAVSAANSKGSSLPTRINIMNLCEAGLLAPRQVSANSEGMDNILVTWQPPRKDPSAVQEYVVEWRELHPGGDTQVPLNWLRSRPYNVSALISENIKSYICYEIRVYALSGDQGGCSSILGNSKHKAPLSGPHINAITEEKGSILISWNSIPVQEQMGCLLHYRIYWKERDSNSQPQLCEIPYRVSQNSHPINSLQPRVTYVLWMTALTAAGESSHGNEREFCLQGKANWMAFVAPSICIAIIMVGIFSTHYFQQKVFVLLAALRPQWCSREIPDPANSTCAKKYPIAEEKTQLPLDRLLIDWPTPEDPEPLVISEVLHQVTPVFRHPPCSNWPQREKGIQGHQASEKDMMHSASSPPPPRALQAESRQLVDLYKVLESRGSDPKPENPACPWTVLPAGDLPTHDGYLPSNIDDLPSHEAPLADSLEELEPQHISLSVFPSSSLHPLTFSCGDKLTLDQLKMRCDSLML", "experiment": "FACS, periplasmic extract, HEK-293T", "units": {"FOB": "fold"}}
{"binder": "B1", "FOB": 2.05}
{"binder": "B2", "FOB": 1.99}
{"binder": "B3", "FOB": 1.64}
{"binder": "B4", "FOB": 3.19}
{"binder": "B5", "FOB": 2.71}
{"binder": "B6", "FOB": 1.68}
{"binder": "B7", "FOB": 1.98}
{"binder": "B8", "FOB": 2.16}
{"binder": "B9", "FOB": 3.17}
{"binder": "B10", "FOB": 1.43}
{"binder": "B11", "FOB": 2.25}
{"binder": "B12", "FOB": 2.46}
{"binder": "B13", "FOB": 1.91}
{"binder": "B14", "FOB": 1.95}
{"binder": "B15", "FOB": 1.77}
{"binder": "B16", "FOB": 1.63}
{"binder": "B17", "FOB": 2.25}
{"molecular_target": "T2, cyno IL-12RB2 with C-terminal HA tag, transiently expressed on HEK-293T cells (cyno, UniProt A0A2K5VNI7 24-860)", "T2 construct": "whole, on cells; also called cyno IL-12Rβ2", "T2 sequence": "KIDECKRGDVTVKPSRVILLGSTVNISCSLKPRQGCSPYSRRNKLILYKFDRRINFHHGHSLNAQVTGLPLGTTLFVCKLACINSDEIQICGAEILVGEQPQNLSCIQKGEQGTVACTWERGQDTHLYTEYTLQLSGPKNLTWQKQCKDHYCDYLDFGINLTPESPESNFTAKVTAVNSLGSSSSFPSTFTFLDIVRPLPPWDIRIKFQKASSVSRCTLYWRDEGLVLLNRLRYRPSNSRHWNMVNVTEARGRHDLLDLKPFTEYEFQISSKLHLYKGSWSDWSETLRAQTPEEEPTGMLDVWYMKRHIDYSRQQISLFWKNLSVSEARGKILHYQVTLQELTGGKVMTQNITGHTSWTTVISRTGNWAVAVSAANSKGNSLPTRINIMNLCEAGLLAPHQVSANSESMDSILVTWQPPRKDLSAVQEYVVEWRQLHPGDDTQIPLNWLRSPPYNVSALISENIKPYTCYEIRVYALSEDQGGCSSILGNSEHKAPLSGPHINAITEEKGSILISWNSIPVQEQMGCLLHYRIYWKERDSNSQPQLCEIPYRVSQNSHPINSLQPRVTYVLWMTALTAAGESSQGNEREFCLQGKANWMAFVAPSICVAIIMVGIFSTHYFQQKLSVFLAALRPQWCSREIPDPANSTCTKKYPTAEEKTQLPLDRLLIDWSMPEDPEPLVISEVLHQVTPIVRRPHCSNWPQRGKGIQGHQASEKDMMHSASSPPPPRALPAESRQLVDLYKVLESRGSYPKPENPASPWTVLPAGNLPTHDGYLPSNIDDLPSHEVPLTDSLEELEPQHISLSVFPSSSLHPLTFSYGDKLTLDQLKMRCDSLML", "experiment": "FACS, periplasmic extract, HEK-293T", "units": {"FOB": "fold"}}
{"binder": "B18", "FOB": 1.35}
{"binder": "B2", "FOB": 3.21}
{"binder": "B3", "FOB": 2.31}
{"binder": "B4", "FOB": 3.84}
{"binder": "B5", "FOB": 4.18}
{"binder": "B6", "FOB": 3.06}
{"binder": "B7", "FOB": 3.19}
{"binder": "B8", "FOB": 4.01}
{"binder": "B9", "FOB": 1.28}
{"binder": "B11", "FOB": 3.47}
{"binder": "B12", "FOB": 3.97}
{"binder": "B13", "FOB": 2.88}
{"binder": "B14", "FOB": 3.16}
{"binder": "B15", "FOB": 2.65}
{"binder": "B16", "FOB": 2.75}
{"binder": "B19", "FOB": 0.99}
{"binder": "B17", "FOB": 3.78}
{"molecular_target": "T3, human IL-12Rβ2-huFc-his (R&D system), biotinylated (human, UniProt Q99665 24-622, limits assumed, biotinylated)", "T3 construct": "bought; captured on Neutravidin in the ELISA; also called Bio-huIL-12Rβ2-huFc-His", "T3 sequence (looked up)": "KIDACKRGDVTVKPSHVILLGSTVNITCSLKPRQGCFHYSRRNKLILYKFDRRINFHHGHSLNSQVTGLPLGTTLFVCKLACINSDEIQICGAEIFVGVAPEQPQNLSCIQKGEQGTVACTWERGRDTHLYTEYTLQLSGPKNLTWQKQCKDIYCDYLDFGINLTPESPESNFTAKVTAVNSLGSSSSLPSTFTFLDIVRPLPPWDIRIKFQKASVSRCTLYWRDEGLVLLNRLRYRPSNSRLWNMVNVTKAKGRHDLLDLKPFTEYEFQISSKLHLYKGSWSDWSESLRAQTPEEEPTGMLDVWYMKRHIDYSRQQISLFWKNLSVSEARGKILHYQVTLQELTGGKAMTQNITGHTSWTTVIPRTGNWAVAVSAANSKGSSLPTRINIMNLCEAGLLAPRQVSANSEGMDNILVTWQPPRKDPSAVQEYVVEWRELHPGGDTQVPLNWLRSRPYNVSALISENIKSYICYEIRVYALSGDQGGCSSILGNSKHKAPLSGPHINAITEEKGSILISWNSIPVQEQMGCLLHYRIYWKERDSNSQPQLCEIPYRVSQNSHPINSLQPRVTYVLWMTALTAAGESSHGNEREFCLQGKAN", "experiment": "ELISA, periplasmic extract"}
{"binder": "B1", "OD450 nm": 0.308}
{"binder": "B18", "OD450 nm": 0.151}
{"binder": "B2", "OD450 nm": 1.67}
{"binder": "B3", "OD450 nm": 2.99}
{"binder": "B4", "OD450 nm": 0.19}
{"binder": "B5", "OD450 nm": 2.1}
{"binder": "B6", "OD450 nm": 0.602}
{"binder": "B7", "OD450 nm": 2.2}
{"binder": "B8", "OD450 nm": 1.35}
{"binder": "B9", "OD450 nm": 0.961}
{"binder": "B10", "OD450 nm": 2.86}
{"binder": "B11", "OD450 nm": 2.13}
{"binder": "B12", "OD450 nm": 0.794}
{"binder": "B13", "OD450 nm": 3.19}
{"binder": "B14", "OD450 nm": 0.626}
{"binder": "B15", "OD450 nm": 1.71}
{"binder": "B16", "OD450 nm": 1.3}
{"binder": "B19", "OD450 nm": 0.237}
{"binder": "B17", "OD450 nm": 0.174}
